Data reported in patent US20210261685A1 (Alector, published 2021).
Where a chain is given by its changes, count along the chain named.

T1: human MerTK extracellular domain (ECD), recombinant (human, UniProt Q12866 21-505)
T1 construct: also called huMerTK; not shown: polyHis tag or TEVS/Thrombin/murine IgG2a Fc tag
T1 sequence: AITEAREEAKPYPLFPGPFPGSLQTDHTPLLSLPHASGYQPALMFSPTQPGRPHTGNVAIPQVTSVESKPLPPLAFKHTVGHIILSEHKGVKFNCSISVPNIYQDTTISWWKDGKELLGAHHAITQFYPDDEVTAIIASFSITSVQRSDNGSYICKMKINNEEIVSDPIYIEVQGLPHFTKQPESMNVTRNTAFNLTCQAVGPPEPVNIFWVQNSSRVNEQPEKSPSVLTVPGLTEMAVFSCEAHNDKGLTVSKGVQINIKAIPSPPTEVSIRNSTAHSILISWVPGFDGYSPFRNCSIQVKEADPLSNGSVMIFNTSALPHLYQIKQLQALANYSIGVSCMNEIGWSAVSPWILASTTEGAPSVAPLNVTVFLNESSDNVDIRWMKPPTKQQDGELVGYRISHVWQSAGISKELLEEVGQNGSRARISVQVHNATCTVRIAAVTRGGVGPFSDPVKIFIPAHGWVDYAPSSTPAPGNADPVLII

T2: murine MerTK extracellular domain (ECD), recombinant (mouse, UniProt Q60805 19-497)
T2 construct: also called moMerTK; mouse MerTK; not shown: polyHis tag or TEVS/Thrombin/murine IgG2a Fc tag
T2 sequence: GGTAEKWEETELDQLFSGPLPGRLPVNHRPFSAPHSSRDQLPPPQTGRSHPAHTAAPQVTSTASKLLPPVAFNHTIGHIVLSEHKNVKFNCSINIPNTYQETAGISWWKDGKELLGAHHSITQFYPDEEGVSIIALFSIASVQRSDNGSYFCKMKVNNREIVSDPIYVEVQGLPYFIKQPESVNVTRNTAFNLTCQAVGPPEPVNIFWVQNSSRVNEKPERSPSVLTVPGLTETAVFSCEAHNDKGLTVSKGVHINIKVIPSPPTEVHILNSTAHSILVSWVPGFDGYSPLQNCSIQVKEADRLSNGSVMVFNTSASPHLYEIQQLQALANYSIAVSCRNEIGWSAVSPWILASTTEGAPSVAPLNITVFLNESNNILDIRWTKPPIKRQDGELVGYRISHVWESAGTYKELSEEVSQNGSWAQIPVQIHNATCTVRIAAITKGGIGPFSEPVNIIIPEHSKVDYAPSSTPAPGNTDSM

T3: cyno MerTK extracellular domain (ECD), recombinant (cynomolgus monkey, UniProt Q12866 21-505 (human entry))
T3 construct: also called cynomolgus MerTK; not shown: polyHis tag or TEVS/Thrombin/murine IgG2a Fc tag
T3 chain: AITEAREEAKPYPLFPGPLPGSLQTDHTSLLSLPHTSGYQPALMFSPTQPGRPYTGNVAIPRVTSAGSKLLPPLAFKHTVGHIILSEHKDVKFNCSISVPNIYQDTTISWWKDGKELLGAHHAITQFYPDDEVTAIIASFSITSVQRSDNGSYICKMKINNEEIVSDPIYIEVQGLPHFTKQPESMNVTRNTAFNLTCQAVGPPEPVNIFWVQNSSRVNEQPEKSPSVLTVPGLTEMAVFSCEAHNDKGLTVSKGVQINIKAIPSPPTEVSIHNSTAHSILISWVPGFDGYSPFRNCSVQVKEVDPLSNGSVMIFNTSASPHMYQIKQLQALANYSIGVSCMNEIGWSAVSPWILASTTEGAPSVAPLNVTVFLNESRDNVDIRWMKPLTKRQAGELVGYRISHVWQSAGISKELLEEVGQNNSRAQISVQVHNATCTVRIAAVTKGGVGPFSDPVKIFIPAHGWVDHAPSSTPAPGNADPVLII

T4: Recombinant human MerTK human Fc Chimera protein (R&D systems, Cat #391-MR-100) (human, UniProt Q12866 26-499, limits assumed)
T4 construct: Bought; also called recombinant human MerTK protein; MerTK-Fc
T4 sequence: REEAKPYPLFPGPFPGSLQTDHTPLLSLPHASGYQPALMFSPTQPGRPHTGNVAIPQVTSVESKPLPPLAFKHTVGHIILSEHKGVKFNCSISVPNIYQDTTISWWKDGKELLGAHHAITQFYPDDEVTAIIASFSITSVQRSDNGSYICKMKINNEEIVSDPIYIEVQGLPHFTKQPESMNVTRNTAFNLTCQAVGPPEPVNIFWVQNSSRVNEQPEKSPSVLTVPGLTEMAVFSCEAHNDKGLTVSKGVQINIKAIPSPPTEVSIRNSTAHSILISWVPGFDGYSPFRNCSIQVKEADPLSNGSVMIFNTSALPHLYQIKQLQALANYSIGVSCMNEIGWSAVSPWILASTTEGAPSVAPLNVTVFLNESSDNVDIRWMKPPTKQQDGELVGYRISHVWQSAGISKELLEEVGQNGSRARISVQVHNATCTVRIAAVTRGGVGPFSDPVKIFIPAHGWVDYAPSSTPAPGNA

T5: human Axl ECD construct (Full Axl) with linker+His+Avi tag (human, UniProt P30530 26-451)
T5 construct: tested as Expi293 supernatant; also called ECD domain of human Axl
T5 sequence: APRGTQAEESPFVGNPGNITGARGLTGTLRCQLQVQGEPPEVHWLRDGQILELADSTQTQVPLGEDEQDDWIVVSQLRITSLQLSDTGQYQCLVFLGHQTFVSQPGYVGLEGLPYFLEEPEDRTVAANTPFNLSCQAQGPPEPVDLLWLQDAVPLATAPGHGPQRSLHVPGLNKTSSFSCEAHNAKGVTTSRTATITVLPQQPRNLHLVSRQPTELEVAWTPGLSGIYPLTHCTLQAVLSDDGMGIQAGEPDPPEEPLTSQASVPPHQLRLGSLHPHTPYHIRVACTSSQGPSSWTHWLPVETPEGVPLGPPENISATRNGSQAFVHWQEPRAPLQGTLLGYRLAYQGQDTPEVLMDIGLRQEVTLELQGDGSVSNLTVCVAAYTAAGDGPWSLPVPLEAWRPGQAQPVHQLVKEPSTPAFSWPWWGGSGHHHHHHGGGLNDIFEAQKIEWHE

B1: MTK-33.14 (antibody, human IgG1, V domains shown)
VH: QVQLVQSGAEVKKPGASVKVSCKASGYTFTSYWMHWVRQAPGQGLEWIGVIDPSDNYINYNQKFRGRVTMTRDTSTSTVYMELSSLRSEDTAVYYCAREAGTRGYFDYWGQGTLVTVSS
VL: DIQMTQSPSSLSASVGDRVTITCQASQSVSNTVAWYQQKPGKAPKLLIYYASNRYTGVPSRFSGSGSGTDFTFTISSLQPEDIATYYCQQDYRSPFTFGQGTKLEIK
B2: MTK-33.15 (antibody, human IgG1, V domains shown)
VH: B1 VH with R65Q, G66V
VL: B1 VL with Q27R, Y92M
B3: MTK-33.16 (antibody, human IgG1, V domains shown)
VH: B1 VH with G26W, R65Q
VL: B1 VL with Q27R
B4: MTK-33.17 (antibody, human IgG1, V domains shown)
VH: B1 VH with D52A
VL: B1 VL with Q27R, Y92M
B5: MTK-33.21 (antibody, human IgG1, V domains shown)
VH: B1 VH
VL: B1 VL with D17G, Q27R, A51V, Y92M
B6: MTK-23 (antibody, human IgG1, V domains shown)
VH: QVQLQQSGADLVRPGASVKISCKAFGYTFTNHHINWVKQRPGQGLDWIGNVDPYNDYSTYNQKFKGKATLTVDKSSSTAYMELSSLTSEDSAVYYCARRVYDGFYVDWYFDVWGAGTTVTVSS
VL: DIVMTQSHKFMSTPVGDRVSITCKASRDVSTAVAWFHQKPGQSPKLLIYSASYRSTGVPDRFTGSGSGTDFTFTISSVQAEDLAVYYCQQHYSAPLTFGAGTKLELK
B7: MTK-25 (antibody, human IgG1, V domains shown)
VH: EVKLVESEGGLVQPGSSMKLSCTASGFTFSDYYMAWVRQVPEKGLEWVANINYEGSSTYYLGSLKSRFIISRDNAENILYLQMSSLKSEDTATYYCARYYYGSVDYWGQGTTLTVSS
VL: DIVMTQSQKFMSTSVGDRVSITCKASQNVRTTVAWYQQKPGQSPKTLIYLASNRHTGVPDRFTGSGSGTDFTLTISNVQSEDLADYFCLQLWNYPWTFGGGTKLEIK

Assays:
[1] = target: T1, human MerTK extracellular domain (ECD), …; assay: SPR, Carterra LSA, antibody immobilised
Procedure: (§1) Binding kinetics of humanized and affinity-matured anti-MerTK antibodies of the present disclosure to human, murine, and cynomolgus MerTK proteins were evaluated as follows. Briefly, anti-MerTK antibodies were prepared by diluting to 10 μg/ml in 10 mM Acetate, pH 4.25 (Carterra, Salt Lake City, Utah), at 300 μl/well. A HC200M sensor chip (Carterra) was activated using the single channel flow cell with a 7-minute injection of a 1:1:1 mixture of 100 mM MES pH 5.5, 100 mM sulfo-NHS, 400 mM EDC (all reconstituted in MES pH 5.5; 100 μl of each mixed in vial immediately before running assay). After switching to the multi-channel array flow cell, the antibodies were injected over the activated chip in a 96-spot array for 15 minutes. The remaining unconjugated active groups on the chip were then blocked by injecting 1M Ethanolamine pH 8.5 (Carterra) for 7 minutes using the single channel flow cell.
(§2) Estimates of affinity were generated by injecting each analyte over the entire antibody array using the single channel flow cell. MerTK analytes were diluted to 33.3, 100, and 300 nM in running buffer, and injected in serial from lowest to highest concentration without regeneration. Two buffer blanks were run between each series (one species per series). Data were processed and analyzed using NextGenKIT high-throughput kinetics analysis software (Carterra). In these experiments, the anti-MerTK antibodies were human IgG1 isotype containing the Fc variant LALAPS.
(§3) The equilibrium dissociation constants (KD) were then calculated from the fitted association and dissociation rate constants (k-on and k-off) for anti-MerTK antibodies of the present disclosure.

[2] = target: T2, murine MerTK extracellular domain …; assay: SPR, Carterra LSA, antibody immobilised
Procedure: as §1, §2, §3

[3] = target: T3, cyno MerTK extracellular domain (ECD), …; assay: SPR, Carterra LSA, antibody immobilised
Procedure: as §1, §2, §3

[4] = target: T4, Recombinant human MerTK human Fc …; assay: competition ELISA, His-ProS on captured MerTK-Fc
Procedure: Rabbit anti-human IgG polyclonal antibody (Jackson ImmunoResearch, Cat #309-005-008) was captured to a high-protein binding plate at 2 μg/ml 4° C. overnight. After washing with 0.05% Tween20 in PBS three times, 5% BSA in PBS was added for 1 hour. Recombinant human MerTK human Fc Chimera protein (R&D systems, Cat #391-MR-100) was added at 2 μg/ml for 1 hour and the plates were then washed. Anti-MerTK antibodies were titrated to final concentration range of between 66.6 nM to 4 pM and then 40 μl of serially diluted antibody and 40 μl of His tag-conjugated recombinant Gas6 protein (R&D systems, Cat #885-GSB-050) at 3 μg/ml or His tag-conjugated recombinant ProS protein (R&D systems, Cat #9489-PS-100) at 20 μg/ml. After a further incubation for 1 hour, plates were washed and incubated for 1 hour with HRP-conjugated anti-6×His tag antibody (Abcam, Cat #ab1187). Plates were then washed and an HRP substrate (TMB) was used to develop the plates. After sufficient color change was observed, the reaction was stopped by adding 50 μl 2N H₂SO₄ and the OD was measured using a spectrophotometer (BioTek).
From these experiments, IC50 values [nM] were determined using OD450 values obtained from the dose-response curves analyzed with Prism software. Table 14 and Table 15 show IC50 values determined for anti-MerTK antibody blocking of Gas6 ligand binding and ProS ligand binding to MerTK. […] Dashes indicate lack of significant blocking; “n.a.” indicates data not available.

[5] = target: T5, human Axl ECD construct (Full Axl) with …; assay: SPR, Carterra LSA, antibody immobilised, construct supernatant injected
Procedure: Binding of anti-MerTK antibodies of the present disclosure to these domain-swapped chimera or deletion mutants (prepared as described above) was tested by Surface Plasmon Resonance (SPR) using Carterra LSA. Purified anti-MerTK antibodies were immobilized in duplicate on a HC30M chip (Carterra) by amine coupling, following the manufacturer's instructions (described previously). Supernatants containing the constructs were diluted 1:1 with running buffer containing 0.5 mg/mL BSA (HBS-TE, Carterra) and injected over the immobilized antibodies. The surface was regenerated with 10 mM Glycine pH2.0 after each construct injection. Sensorgrams were analyzed using Carterra Epitope software to identify patterns of construct binding. Loss of binding to MerTK constructs with domains deleted or swapped in from Axl and/or gain of binding to Axl constructs with MerTK domains swapped in were evaluated. Data from these studies was used to construct a domain binding map for anti-MerTK antibodies and their binding to various domains of human MerTK.

Binder | Kd [1] | Kd [2] | Kd [3] | IC50 [4] | binding result [5]
B1 | 30.5 nM | 275 nM | 29 nM | – | –
B2 | 4.6 nM | 105 nM | 4 nM | – | –
B3 | 10.9 nM | 225 nM | 10.1 nM | – | –
B4 | 20.4 nM | 505 nM | 19.9 nM | – | –
B5 | 0.4 nM | 44 nM | 0.3 nM | – | –
B6 | – | – | – | 25.9 nM | –
B7 | – | – | – | – | no binding
